Data published in patent publication US20250223354A1 (BIOTHEUS, published 2025).

B1: Tiragolumab (antibody, V domains shown)
VH: EVQLQQSGPGLVKPSQTLSLTCAISGDSVSSNSAAWNWIRQSPSRGLEWLGKTYYRFKWYSDYAVSVKGRITINPDTSKNQFSLQLNSVTPEDTAVFYCTRESTTYDLLAGPFDYWGQGTLVTVSS
VL: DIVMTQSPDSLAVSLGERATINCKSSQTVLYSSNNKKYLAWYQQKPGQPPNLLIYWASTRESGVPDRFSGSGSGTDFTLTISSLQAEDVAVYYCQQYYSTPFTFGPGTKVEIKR
B2: anti-PVRIG monoclonal antibody ADI-56127-G1 (antibody, human IgG1, V domains shown)
VH: QVQLVQSGAEVKKPGSSVKVSCKASGGTESVDAISWVRQAPGQGLEWMGDIIPFFDTDYAQKFQGRVTITADESTSTAYMELSSLRSEDTAVYYCAREGGTSWTHFFDLWGRGTLVTVSS
VL: not shown
notes: Wild-type human IgG1 heavy chain constant region, human kappa light chain constant region; HEK293
B3: anti-PVRIG monoclonal antibody ADI-56127-G1LALA (antibody, human IgG1, V domains shown)
VH: B2 VH
VL: not shown
notes: Human IgG1 heavy chain constant region modified by L234A, L235A; human kappa light chain constant region; HEK293

Legend:
[1] = molecular target: T1, human TIGIT expressed on cells (human, UniProt Q495A1 22-244); experiment: flow cytometry, CHO-huTIGIT cells
T1 construct: whole, on cells; cDNA encoding human TIGIT in pCHO1.0 for CHO cells; also called CHO-huTIGIT cells
T1 sequence (looked up): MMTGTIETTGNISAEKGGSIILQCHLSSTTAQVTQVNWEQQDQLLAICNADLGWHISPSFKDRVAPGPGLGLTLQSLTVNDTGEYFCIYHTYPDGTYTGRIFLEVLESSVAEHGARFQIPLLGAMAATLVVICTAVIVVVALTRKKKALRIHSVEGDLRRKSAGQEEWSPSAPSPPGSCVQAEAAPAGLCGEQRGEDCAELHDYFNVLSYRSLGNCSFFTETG
Source text: (§1) Specifically, CHO cells overexpressing human TIGIT (CHO-huTIGIT cells), CHO cells overexpressing cynomolgus TIGIT (CHO-cynoTIGIT cells) and CHO cells overexpressing mouse TIGIT (CHO-muTIGIT cells) were generated by transfection of the pCHO1.0 vector (purchased from Invitrogen) with cDNA encoding human TIGIT, cynomolgus TIGIT and mouse TIGIT cloned into the multiple cloning site (MCS), respectively, followed by pressure screening. The overexpressing cells were expanded and adjusted to an appropriate cell density, and added to a 96-well flow cytometry plate. After centrifugation, the cells were added with a gradiently diluted sample to be tested, and incubated at 4° C. for 30 minutes. The cells were washed twice with PBS, and added with a fluorescent secondary antibody correspondingly diluted to an appropriate concentration, then incubated at 4° C. for 30 minutes, and washed twice with PBS. Cells were resuspended with PBS, and detected on a CytoFlex flow cytometer, and the corresponding MFI was calculated. Graphpad software was used for graphical analysis to obtain EC₅₀ values.

[2] = molecular target: T1, human TIGIT expressed on cells; experiment: flow cytometry on activated human primary T cells (TIGIT), readout positive cell (%); unit from the concentration axis
Source text: The binding activity of the anti-TIGIT antibody of the present invention to TIGIT on the surface of activated T cells was detected based on the flow cytometry detection method.
Specifically, human PBMC were sorted according to the experimental protocol provided by […] Company (stemcell, Cat. No.: #17951C) to obtain human total T cells. […] The activated T cells were adjusted to an appropriate cell density and added to a 96-well flow cytometry plate. After centrifugation, the gradiently diluted sample to be tested was added, and incubated at 4° C. for 30 minutes. Washing was carried out twice with PBS, and a fluorescent secondary antibody diluted to an appropriate concentration was added, incubated at 4° C. for 30 minutes, and washed twice with PBS. […]

human TIGIT-his protein = molecular target: T2, human TIGIT-his protein (human, UniProt Q495A1 22-141); experiment: BLI (ForteBio), IgG on AHQ sensor, 100 nM TIGIT-his, monovalent, 1:1 model
T2 construct: not shown: his tag
T2 sequence: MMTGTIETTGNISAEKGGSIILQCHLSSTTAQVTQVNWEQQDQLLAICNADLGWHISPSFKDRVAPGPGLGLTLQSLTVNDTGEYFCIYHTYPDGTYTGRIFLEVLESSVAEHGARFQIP
Experimental: (§2) Biofilm layer optical interference technology (ForteBio) was used to determine the binding and dissociation […] values of the anti-TIGIT monoclonal antibodies obtained in Example 1 to human, cynomolgus monkey and mouse TIGIT. Fortebio affinity measurements were performed according to existing methods (Este, P et al., High throughput solution-based measurement of antibody-antigen affinity and epitope binning. Mabs, 2013.5(2): p 270-8).
(§3) The antibody-loaded sensor was incubated in 100 nM TIGIT-his antigen to the plateau phase, and then the sensor was transferred to an analysis buffer and incubated for at least 2 minutes for measuring dissociation rate. The kinetic analysis was performed using a 1:1 binding model.

[3] = molecular target: T3, cynomolgus monkey TIGIT-his protein (cynomolgus monkey); experiment: as above
T3 construct: also called Cynomolgus TIGIT-his; not shown: his tag
T3 sequence (chain, as listed by the source): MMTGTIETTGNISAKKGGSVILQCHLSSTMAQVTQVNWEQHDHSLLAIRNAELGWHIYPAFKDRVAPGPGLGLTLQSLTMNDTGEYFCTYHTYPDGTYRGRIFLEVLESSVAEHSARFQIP
Experimental: as §2, §3

[4] = molecular target: T1, human TIGIT expressed on cells; experiment: flow cytometry on CHO cells overexpressing human TIGIT, median fluorescence intensity PE-A; unit from the concentration axis
Source text: as §1

[5] = molecular target: T1, human TIGIT expressed on cells; experiment: flow cytometry blocking assay: binding of human CD155 protein with mouse IgG2a Fc tag to CHO cells overexpressing human TIGIT, median fluorescence intensity APC-A; unit from the concentration axis
Experimental: (§4) Specifically, the CHO-huTIGIT cells were expanded and adjusted to a cell density of 2×10⁶ cells/mL, added to a 96-well flow plate at 100 μL/well, and centrifuged for later use. The purified monoclonal antibodies were diluted 3-fold with PBS starting at 400 nM for a total of 12 concentration gradients. The diluted sample was added at 60 μL/well to the cells-carrying 96-well flow plate, and incubated at 4° C. for 30 minutes. […] APC-conjugated goat anti-mouse IgG antibody diluted 100-fold with PBS was added at 100 μL/well, incubated at 4° C. for 30 minutes, and washed twice with PBS. Cells were resuspended with PBS at 100 μL/well, and detected on a CytoFlex flow cytometer, and the corresponding MFI was calculated.

[6] = molecular target: T4, cynomolgus TIGIT overexpressed on CHO cells (cynomolgus, UniProt A0A7N9I9V4 89-312); experiment: flow cytometry, CHO-cynoTIGIT cells
T4 construct: whole, on cells; also called CHO-cynoTIGIT cells
T4 sequence (A0A7N9I9V4 entry or part of it): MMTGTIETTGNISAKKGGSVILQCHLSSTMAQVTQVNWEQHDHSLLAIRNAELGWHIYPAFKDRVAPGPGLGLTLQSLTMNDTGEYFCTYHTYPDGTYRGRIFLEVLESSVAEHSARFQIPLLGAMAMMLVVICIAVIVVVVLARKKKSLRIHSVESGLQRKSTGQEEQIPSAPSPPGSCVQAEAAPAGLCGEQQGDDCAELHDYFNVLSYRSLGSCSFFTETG
Source text: as §1

[7] = molecular target: T4, cynomolgus TIGIT overexpressed on CHO …; experiment: flow cytometry on CHO cells overexpressing cynomolgus TIGIT, median fluorescence intensity PE-A; unit from the concentration axis
Source text: as §1

[8] = molecular target: T1, human TIGIT expressed on cells; experiment: flow cytometry, competition with human CD155-mouse IgG2a Fc (2 ug/mL) on CHO-huTIGIT cells
Experimental: as §4

[9] = molecular target: T5, mouse PVRIG overexpressed on CHO cells (mouse, UniProt A0A1B0GS01 1-234); experiment: flow cytometry, CHO-muPVRIG cells
T5 construct: also called CHO-muPVRIG cells
T5 sequence: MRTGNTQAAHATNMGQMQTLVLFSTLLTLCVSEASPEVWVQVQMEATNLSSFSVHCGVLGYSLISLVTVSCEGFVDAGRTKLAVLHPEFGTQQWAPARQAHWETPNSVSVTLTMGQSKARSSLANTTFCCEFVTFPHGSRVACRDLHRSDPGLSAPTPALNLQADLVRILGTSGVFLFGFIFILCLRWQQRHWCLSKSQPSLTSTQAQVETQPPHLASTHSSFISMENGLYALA
Experimental: (§5) The overexpressing cells were expanded and adjusted to an appropriate cell density, and added to a 96-well flow cytometry plate. After centrifugation, the cells were added with a gradiently diluted sample to be tested, and incubated at 4° C. for 30 minutes. The cells were washed twice with PBS, and added with a fluorescent secondary antibody correspondingly diluted to an appropriate concentration, then incubated at 4° C. for 30 minutes, and washed twice with PBS. Cells were resuspended with PBS, and detected on a CytoFlex flow cytometer, and the corresponding MFI was calculated. Graphpad software was used for graphical analysis to obtain EC₅₀ values.

[10] = molecular target: T6, human PVRIG expressed on cells (human, UniProt Q6DKI7 41-326); experiment: flow cytometry, CHO-huPVRIG cells
T6 construct: whole, on cells; cDNA encoding human PVRIG in pCHO1.0 for CHO cells; also called CHO-huPVRIG cells
T6 sequence (looked up): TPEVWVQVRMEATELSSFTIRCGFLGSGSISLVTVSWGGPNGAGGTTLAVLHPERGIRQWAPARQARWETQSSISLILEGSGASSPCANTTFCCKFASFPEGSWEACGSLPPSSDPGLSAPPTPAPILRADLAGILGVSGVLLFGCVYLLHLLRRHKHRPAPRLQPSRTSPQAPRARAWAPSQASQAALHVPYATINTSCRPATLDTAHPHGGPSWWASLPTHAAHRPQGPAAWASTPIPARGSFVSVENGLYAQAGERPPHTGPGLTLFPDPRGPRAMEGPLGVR
Experimental: as §5

[11] = molecular target: Biotin-labeled mouse PVRIG huFc protein (mouse); experiment: competition ELISA: biotin mouse PVRIG-huFc binding to coated mouse CD112-his
Experimental: Specifically, mouse CD112-his protein diluted with 1× coating buffer to a final concentration of 1 μg/mL was added to the ELISA plate at 100 μL/well, covered with the film, and coated overnight at 4° C. The coating solution in the ELISA plate was discarded, and the ELISA plate was washed three times with 1×PBST and was blocked with 5% BSA/PBS at 200 μL/well for 2 hours at room temperature. During the blocking period, the samples to be tested were gradient diluted with 1% BSA/PBS to a final volume of 60 μL/well. […] The blocking solution in the ELISA plate was discarded, and the above sample mixture was added at 100 μL/well and incubated for 2 hours at room temperature. The above co-incubated samples were discarded, the ELISA plate was washed three times with 1×PBST, and SA-HRP diluted with 1% BSA/PBS was added at 100 μL/well and incubated for 1 hour at room temperature. The SA-HRP dilution was discarded, the ELISA plate was washed three times with 1×PBST, ELISA Chromogen Solution was added at 100 μL/well and incubated for 1-3 minutes at room temperature, ELISA stopping solution was added at 50 μL/well and the absorbance values were read at 450 nm.

[12] = molecular target: T7, human PVRIG protein with mouse IgG2a Fc tag (human; mouse, UniProt Q6DKI7 41-171, limits assumed); experiment: flow cytometry, competition: human PVRIG-mouse IgG2a Fc (1 ug/mL) binding to CHO-huCD112 cells
T7 construct: Whole entry named; not shown: mouse IgG2a Fc tag
T7 sequence (looked up): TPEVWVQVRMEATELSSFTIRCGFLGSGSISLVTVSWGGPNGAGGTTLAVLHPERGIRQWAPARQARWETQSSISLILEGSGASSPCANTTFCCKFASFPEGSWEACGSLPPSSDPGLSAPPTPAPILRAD
Experimental: Specifically, CHO cells overexpressing human CD112 (CHO-huCD112 cells) were generated by transfection of the pCHO1.0 vector (purchased from Invitrogen) with cDNA encoding human CD112 cloned into the multiple cloning site (MCS), respectively, followed by pressure screening. The CHO-huCD112 cells were expanded and adjusted to a cell density of 2×10⁶ cells/mL, added to a 96-well flow plate at 100 μL/well, and centrifuged for later use. The purified monoclonal antibody was gradient diluted with PBS and the diluted sample was added to a blank 96-well flow plate at 60 μL/well. […] The above incubated samples were added at 100 μL/well to the 96-well flow plate containing CHO-huCD112 cells, incubated at 4° C. for 30 min and washed twice with PBS. APC-conjugated goat anti-mouse IgG antibody diluted 100-fold with PBS was added at 100 μL/well, incubated at 4° C. for 30 minutes and washed twice with PBS. Cells were resuspended with PBS at 100 μL/well, and detected on a CytoFlex flow cytometer, and the corresponding MFI was calculated.

[13] = molecular target: T8, cynomolgus PVRIG overexpressed on CHO cells (cynomolgus, UniProt A0A2K5WVV8 1-322); experiment: flow cytometry, CHO-cynoPVRIG cells
T8 construct: whole, on cells; also called CHO-cynoPVRIG cells
T8 sequence: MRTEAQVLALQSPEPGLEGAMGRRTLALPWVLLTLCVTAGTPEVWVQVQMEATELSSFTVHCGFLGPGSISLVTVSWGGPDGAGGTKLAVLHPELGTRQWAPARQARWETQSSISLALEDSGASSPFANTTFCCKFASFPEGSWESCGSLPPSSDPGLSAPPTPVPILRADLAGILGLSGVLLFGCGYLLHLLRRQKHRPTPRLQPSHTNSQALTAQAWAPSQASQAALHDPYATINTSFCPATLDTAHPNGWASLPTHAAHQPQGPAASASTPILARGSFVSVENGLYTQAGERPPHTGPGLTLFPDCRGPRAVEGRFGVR
Experimental: as §5

Binder	EC50 [1]	EC50 [2]	Kd (human TIGIT-his protein)	Kd [3]	EC50 [4]	IC50 [5]	EC50 [6]	EC50 [7]	IC50 [8]	EC50 [9]	EC50 [10]	IC50 [11]	IC50 [12]	EC50 [13]
B1	1.35 nM	0.274 nM	0.87 nM	3.5 nM	1.34 nM	0.634 nM	4.18 nM	4.18 nM	0.63 nM					
B2										6.47 nM	2.51 nM	1.57 nM	1.23 nM	1.96 nM
B3										5.38 nM	2.44 nM	1.78 nM	1.36 nM	1.98 nM
